Laboratory results from patent US5543312.

Target: glycophorin A from human erythrocytes (human) (UniProt P02724)

Chain of Pasteurella haemolytica A1 glycoprotease (enzyme from culture supernatant) (P36175 whole entry): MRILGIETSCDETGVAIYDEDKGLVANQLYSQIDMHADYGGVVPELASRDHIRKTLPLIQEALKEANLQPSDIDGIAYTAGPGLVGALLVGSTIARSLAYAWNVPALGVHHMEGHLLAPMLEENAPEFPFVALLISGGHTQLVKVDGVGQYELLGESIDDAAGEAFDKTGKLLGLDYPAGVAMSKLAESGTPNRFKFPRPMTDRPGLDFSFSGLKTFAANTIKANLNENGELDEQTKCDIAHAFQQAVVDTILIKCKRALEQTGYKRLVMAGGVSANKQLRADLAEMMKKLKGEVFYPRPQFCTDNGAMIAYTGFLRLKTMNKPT

**Q.** Which Glycoprotease Specific Activity (nmol/mg/h), cleavage of [125I]-glycophorin A does the source give for “Pasteurella haemolytica A1 glycoprotease (enzyme from culture supernatant)” here?
**A.** 94 nmol/mg/h
